Test results reported in patent US7256012B2, “Fluorogenic protease substrates based on dye-dimerization” (3M Innovative Properties Company, priority 1997, dated 2007).

Molecular target: T1, trypsin (Bos taurus, UniProt P00760)
T1 construct: gene PRSS1
T1 sequence (P00760 24-246): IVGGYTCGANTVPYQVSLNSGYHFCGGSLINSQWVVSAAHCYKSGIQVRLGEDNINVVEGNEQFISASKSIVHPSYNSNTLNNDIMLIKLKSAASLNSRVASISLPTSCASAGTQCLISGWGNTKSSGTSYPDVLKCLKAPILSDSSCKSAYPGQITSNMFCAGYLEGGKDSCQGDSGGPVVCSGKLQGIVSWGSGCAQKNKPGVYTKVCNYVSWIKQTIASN
Assay: Hydrolysis of fluorogenic protease substrate by purified enzyme (trypsin), fluorescence intensity
Format: biochemical
Details: for Average ratio w/ trypsin to w/o trypsin: average over emission 570-585 nm
Protocol: Enzymatic hydrolysis of the substrate from Example 1 was carried out in 50 mM carbonate buffer, pH 8.9 at room temperature. Fluorescence intensity of the solution prior to treatment with trypsin and after treatment with trypsin is shown in Table 1, for excitation wavelengths of 360 nm, 522 nm, 530 nm, and 553 nm, respectively. […] This is a characteristic of dye dimerization or stacking, as described above. […] Both the fluorescence and absorption results provided convincing evidence that ground-state interactions existed between dye molecules in the conjugate and became diminished after enzymatic cleavage.

[1] = Excitation 360 nm, emission 570 nm
[2] = Excitation 360 nm, emission 571 nm
[3] = Excitation 360 nm, emission 572 nm
[4] = Excitation 360 nm, emission 573 nm
[5] = Excitation 360 nm, emission 574 nm
[6] = Excitation 360 nm, emission 575 nm
[7] = Excitation 360 nm, emission 576 nm
[8] = Excitation 360 nm, emission 577 nm
[9] = Excitation 360 nm, emission 578 nm
[10] = Excitation 360 nm, emission 579 nm
[11] = Excitation 360 nm, emission 580 nm
[12] = Excitation 360 nm, emission 581 nm
[13] = Excitation 360 nm, emission 582 nm
[14] = Excitation 360 nm, emission 583 nm
[15] = Excitation 360 nm, emission 584 nm
[16] = Excitation 360 nm, emission 585 nm
[17] = Excitation 522 nm, emission 570 nm
[18] = Excitation 522 nm, emission 571 nm
[19] = Excitation 522 nm, emission 572 nm
[20] = Excitation 522 nm, emission 573 nm
[21] = Excitation 522 nm, emission 574 nm
[22] = Excitation 522 nm, emission 575 nm
[23] = Excitation 522 nm, emission 576 nm
[24] = Excitation 522 nm, emission 577 nm
[25] = Excitation 522 nm, emission 578 nm
[26] = Excitation 522 nm, emission 579 nm
[27] = Excitation 522 nm, emission 580 nm
[28] = Excitation 522 nm, emission 581 nm
[29] = Excitation 522 nm, emission 582 nm
[30] = Excitation 522 nm, emission 583 nm
[31] = Excitation 522 nm, emission 584 nm
[32] = Excitation 522 nm, emission 585 nm

TMR-Val-Pro-Arg-Gly-Lys-TMR (XPRGX; not fully specified; TMR dye at both ends) [T-VPRGK-T]
Average ratio w/ trypsin to w/o trypsin (Excitation 360 nm): 26 | Fluorescence intensity w/ trypsin [1]: 8625 | Fluorescence intensity w/o trypsin [1]: 319 | ratio w/ trypsin to w/o trypsin [1]: 27 | Fluorescence intensity w/ trypsin [2]: 8817 | Fluorescence intensity w/o trypsin [2]: 347 | ratio w/ trypsin to w/o trypsin [2]: 25 | Fluorescence intensity w/ trypsin [3]: 9322 | Fluorescence intensity w/o trypsin [3]: 369 | ratio w/ trypsin to w/o trypsin [3]: 25 | Fluorescence intensity w/ trypsin [4]: 9189 | Fluorescence intensity w/o trypsin [4]: 365 | ratio w/ trypsin to w/o trypsin [4]: 25 | Fluorescence intensity w/ trypsin [5]: 9629 | Fluorescence intensity w/o trypsin [5]: 354 | ratio w/ trypsin to w/o trypsin [5]: 27 | Fluorescence intensity w/ trypsin [6]: 9719 | Fluorescence intensity w/o trypsin [6]: 410 | ratio w/ trypsin to w/o trypsin [6]: 24 | Fluorescence intensity w/ trypsin [7]: 9759 | Fluorescence intensity w/o trypsin [7]: 401 | ratio w/ trypsin to w/o trypsin [7]: 24 | Fluorescence intensity w/ trypsin [8]: 9776 | Fluorescence intensity w/o trypsin [8]: 378 | ratio w/ trypsin to w/o trypsin [8]: 26 | Fluorescence intensity w/ trypsin [9]: 9981 | Fluorescence intensity w/o trypsin [9]: 379 | ratio w/ trypsin to w/o trypsin [9]: 26 | Fluorescence intensity w/ trypsin [10]: 9872 | Fluorescence intensity w/o trypsin [10]: 392 | ratio w/ trypsin to w/o trypsin [10]: 25 | Fluorescence intensity w/ trypsin [11]: 9788 | Fluorescence intensity w/o trypsin [11]: 361 | ratio w/ trypsin to w/o trypsin [11]: 27 | Fluorescence intensity w/ trypsin [12]: 9960 | Fluorescence intensity w/o trypsin [12]: 375 | ratio w/ trypsin to w/o trypsin [12]: 27 | Fluorescence intensity w/ trypsin [13]: 9783 | Fluorescence intensity w/o trypsin [13]: 376 | ratio w/ trypsin to w/o trypsin [13]: 26 | Fluorescence intensity w/ trypsin [14]: 9591 | Fluorescence intensity w/o trypsin [14]: 347 | ratio w/ trypsin to w/o trypsin [14]: 28 | Fluorescence intensity w/ trypsin [15]: 9387 | Fluorescence intensity w/o trypsin [15]: 385 | ratio w/ trypsin to w/o trypsin [15]: 24 | Fluorescence intensity w/ trypsin [16]: 9427 | Fluorescence intensity w/o trypsin [16]: 353 | ratio w/ trypsin to w/o trypsin [16]: 27 | Average ratio w/ trypsin to w/o trypsin (Excitation 522 nm): 28 | Fluorescence intensity w/ trypsin [17]: 40193 | Fluorescence intensity w/o trypsin [17]: 1378 | ratio w/ trypsin to w/o trypsin [17]: 29 | Fluorescence intensity w/ trypsin [18]: 41416 | Fluorescence intensity w/o trypsin [18]: 1525 | ratio w/ trypsin to w/o trypsin [18]: 27 | Fluorescence intensity w/ trypsin [19]: 42506 | Fluorescence intensity w/o trypsin [19]: 1480 | ratio w/ trypsin to w/o trypsin [19]: 29 | Fluorescence intensity w/ trypsin [20]: 43406 | Fluorescence intensity w/o trypsin [20]: 1509 | ratio w/ trypsin to w/o trypsin [20]: 29 | Fluorescence intensity w/ trypsin [21]: 44241 | Fluorescence intensity w/o trypsin [21]: 1645 | ratio w/ trypsin to w/o trypsin [21]: 27 | Fluorescence intensity w/ trypsin [22]: 45037 | Fluorescence intensity w/o trypsin [22]: 1643 | ratio w/ trypsin to w/o trypsin [22]: 27 | Fluorescence intensity w/ trypsin [23]: 45519 | Fluorescence intensity w/o trypsin [23]: 1587 | ratio w/ trypsin to w/o trypsin [23]: 29 | Fluorescence intensity w/ trypsin [24]: 45648 | Fluorescence intensity w/o trypsin [24]: 1672 | ratio w/ trypsin to w/o trypsin [24]: 27 | Fluorescence intensity w/ trypsin [25]: 45980 | Fluorescence intensity w/o trypsin [25]: 1629 | ratio w/ trypsin to w/o trypsin [25]: 28 | Fluorescence intensity w/ trypsin [26]: 45745 | Fluorescence intensity w/o trypsin [26]: 1673 | ratio w/ trypsin to w/o trypsin [26]: 27 | Fluorescence intensity w/ trypsin [27]: 45757 | Fluorescence intensity w/o trypsin [27]: 1595 | ratio w/ trypsin to w/o trypsin [27]: 29 | Fluorescence intensity w/ trypsin [28]: 44936 | Fluorescence intensity w/o trypsin [28]: 1665 | ratio w/ trypsin to w/o trypsin [28]: 27 | Fluorescence intensity w/ trypsin [29]: 44724 | Fluorescence intensity w/o trypsin [29]: 1567 | ratio w/ trypsin to w/o trypsin [29]: 29 | Fluorescence intensity w/ trypsin [30]: 44076 | Fluorescence intensity w/o trypsin [30]: 1599 | ratio w/ trypsin to w/o trypsin [30]: 28 | Fluorescence intensity w/ trypsin [31]: 43282 | Fluorescence intensity w/o trypsin [31]: 1601 | ratio w/ trypsin to w/o trypsin [31]: 27 | Fluorescence intensity w/ trypsin [32]: 42928 | Fluorescence intensity w/o trypsin [32]: 1527 | ratio w/ trypsin to w/o trypsin [32]: 28
